Reference: paper PMC11969024 (2025)

B1: peptide HD2 (from tick evasin EVA4) / CXCL13 (biotinylated, synthetic) (parent complex)
chain 1: EEDDYTAYAPLTCYFT
chain 2: VLEVYYTSLRCRCVQESSVFIPRRFIDRIQILPRGNGCPRKEIIVWKKNKSIVCVDPQAEWIQRMMEVLRKRSSSTLPVPVFKRKIP

Variants of: B1

Point of comparison: chain 1 F15I, enrichment -5.03 log2 (difference from the parental peptide). Against it:
- chain 1 T6E — higher, 4.71 log2 (difference from the parental peptide)
- chain 1 T6V — higher, -2.98 log2 (difference from the parental peptide)
- chain 1 T6S — higher, 2.15 log2 (difference from the parental peptide)
- chain 1 T6L — higher, 1.48 log2 (difference from the parental peptide)
- chain 1 T6N — higher, 2.54 log2 (difference from the parental peptide)
- chain 1 T6H — higher, 0.439 log2 (difference from the parental peptide)
- chain 1 T6R — higher, -1.88 log2 (difference from the parental peptide)
- chain 1 T6A — higher, 1.86 log2 (difference from the parental peptide)
- chain 1 T6D — higher, 5.14 log2 (difference from the parental peptide)
- chain 1 T6W — higher, 5.97 log2 (difference from the parental peptide)
- chain 1 T6I — higher, -3.55 log2 (difference from the parental peptide)
- chain 1 T6Q — higher, 1.51 log2 (difference from the parental peptide)
- chain 1 T6G — higher, 4.13 log2 (difference from the parental peptide)
- chain 1 T6C — lower, -9.9 log2 (difference from the parental peptide)
- chain 1 T6F — higher, 1.42 log2 (difference from the parental peptide)
- chain 1 T6P — higher, -0.391 log2 (difference from the parental peptide)
- chain 1 A7S — higher, 2.57 log2 (difference from the parental peptide)
- chain 1 A7V — higher, 0.636 log2 (difference from the parental peptide)
- chain 1 A7L — higher, 1.64 log2 (difference from the parental peptide)
- chain 1 A7F — higher, 0.877 log2 (difference from the parental peptide)
- chain 1 A7E — higher, 5.25 log2 (difference from the parental peptide)
- chain 1 A7Y — higher, 3.99 log2 (difference from the parental peptide)
- chain 1 A7D — higher, 5.88 log2 (difference from the parental peptide)
- chain 1 A7K — higher, -1.87 log2 (difference from the parental peptide)
- chain 1 A7N — higher, 2.99 log2 (difference from the parental peptide)
- chain 1 A7I — higher, 0.819 log2 (difference from the parental peptide)
- chain 1 A7Q — higher, 3.15 log2 (difference from the parental peptide)
- chain 1 A7M — higher, 3.01 log2 (difference from the parental peptide)
- chain 1 A7H — higher, 0.018 log2 (difference from the parental peptide)
- chain 1 A7R — higher, -1.49 log2 (difference from the parental peptide)
- chain 1 D4N — higher, -3.74 log2 (difference from the parental peptide)
- chain 1 D4S — lower, -5.37 log2 (difference from the parental peptide)
- chain 1 D4M — lower, -5.4 log2 (difference from the parental peptide)
- chain 1 D4A — lower, -6.85 log2 (difference from the parental peptide)
- chain 1 D4L — higher, -4.8 log2 (difference from the parental peptide)
- chain 1 D4I — higher, -4.76 log2 (difference from the parental peptide)
- chain 1 D4V — lower, -5.82 log2 (difference from the parental peptide)
- chain 1 D4Q — higher, -2.67 log2 (difference from the parental peptide)
- chain 1 D4P — higher, -1.45 log2 (difference from the parental peptide)
- chain 1 D4F — higher, -4.23 log2 (difference from the parental peptide)
- chain 1 D4E — higher, -0.811 log2 (difference from the parental peptide)
- chain 1 F15W — higher, -3.2 log2 (difference from the parental peptide)
- chain 1 F15A — higher, -4.66 log2 (difference from the parental peptide)
- chain 1 F15G — lower, -9.13 log2 (difference from the parental peptide)
- chain 1 F15M — higher, -4.67 log2 (difference from the parental peptide)
- chain 1 F15R — lower, -6.31 log2 (difference from the parental peptide)
- chain 1 F15E — lower, -7.7 log2 (difference from the parental peptide)
- chain 1 F15T — lower, -5.1 log2 (difference from the parental peptide)
- chain 1 F15P — higher, -3.33 log2 (difference from the parental peptide)
- chain 1 F15V — higher, -2.57 log2 (difference from the parental peptide)
- chain 1 F15L — higher, -2.76 log2 (difference from the parental peptide)
- chain 1 F15C — lower, -7.62 log2 (difference from the parental peptide)
- chain 1 Y8Q — lower, -5.13 log2 (difference from the parental peptide)
- chain 1 Y8N — higher, -3.32 log2 (difference from the parental peptide)
- chain 1 Y8I — higher, -4.99 log2 (difference from the parental peptide)
- chain 1 Y8D — higher, 0.221 log2 (difference from the parental peptide)
- chain 1 Y8V — higher, -4.22 log2 (difference from the parental peptide)
- chain 1 Y8W — higher, 2.6 log2 (difference from the parental peptide)
- chain 1 Y8T — higher, -4.45 log2 (difference from the parental peptide)
- chain 1 Y8M — higher, -1.68 log2 (difference from the parental peptide)
- chain 1 Y8L — higher, -2.2 log2 (difference from the parental peptide)
- chain 1 Y8F — higher, 0.328 log2 (difference from the parental peptide)
- chain 1 C13N — higher, -4.98 log2 (difference from the parental peptide)
- chain 1 C13A — lower, -7.08 log2 (difference from the parental peptide)
- chain 1 C13T — lower, -5.19 log2 (difference from the parental peptide)
- chain 1 C13P — lower, -7.37 log2 (difference from the parental peptide)
- chain 1 C13Y — lower, -6.52 log2 (difference from the parental peptide)
- chain 1 C13Q — lower, -8.15 log2 (difference from the parental peptide)
- chain 1 C13S — higher, -4.26 log2 (difference from the parental peptide)
- chain 1 P10A — higher, -4.03 log2 (difference from the parental peptide)
- chain 1 P10L — lower, -9.28 log2 (difference from the parental peptide)
- chain 1 P10M — lower, -7.27 log2 (difference from the parental peptide)
- chain 1 P10S — higher, -4.38 log2 (difference from the parental peptide)
- chain 1 P10G — higher, 1.04 log2 (difference from the parental peptide)
- chain 1 E2N — higher, -3.27 log2 (difference from the parental peptide)
- chain 1 E2T — higher, -3.42 log2 (difference from the parental peptide)
- chain 1 E2H — higher, -3.83 log2 (difference from the parental peptide)
- chain 1 E2A — higher, -1.7 log2 (difference from the parental peptide)
- chain 1 E2V — higher, -1.21 log2 (difference from the parental peptide)
- chain 1 E2D — higher, 1.8 log2 (difference from the parental peptide)
- chain 1 E2Q — higher, -2.09 log2 (difference from the parental peptide)
- chain 1 E2M — higher, -1.37 log2 (difference from the parental peptide)
- chain 1 T12A — lower, -5.98 log2 (difference from the parental peptide)
- chain 1 T12Q — higher, -3.59 log2 (difference from the parental peptide)
- chain 1 T12H — lower, -5.34 log2 (difference from the parental peptide)
- chain 1 T12N — higher, -4.95 log2 (difference from the parental peptide)
- chain 1 T12C — lower, -5.24 log2 (difference from the parental peptide)
- chain 1 T12S — lower, -6.76 log2 (difference from the parental peptide)
- chain 1 T12L — higher, -1.72 log2 (difference from the parental peptide)
- chain 1 L11R — lower, -5.68 log2 (difference from the parental peptide)
- chain 1 L11T — higher, -3.85 log2 (difference from the parental peptide)
- chain 1 L11C — lower, -5.19 log2 (difference from the parental peptide)
- chain 1 L11S — lower, -8.97 log2 (difference from the parental peptide)
- chain 1 L11M — higher, 3.77 log2 (difference from the parental peptide)
- chain 1 L11N — lower, -7.22 log2 (difference from the parental peptide)
- chain 1 L11H — the same, -5.03 log2 (difference from the parental peptide)
- chain 1 Y14C — lower, -6.09 log2 (difference from the parental peptide)
- chain 1 Y14W — higher, -2.89 log2 (difference from the parental peptide)
- chain 1 A9L — higher, -0.527 log2 (difference from the parental peptide)
- chain 1 A9N — higher, -3.98 log2 (difference from the parental peptide)
- chain 1 A9T — higher, -1.4 log2 (difference from the parental peptide)
- chain 1 A9F — higher, -2.3 log2 (difference from the parental peptide)
- chain 1 A9R — higher, -4.49 log2 (difference from the parental peptide)
- chain 1 A9W — higher, 1.81 log2 (difference from the parental peptide)
- chain 1 A9G — higher, 0.486 log2 (difference from the parental peptide)
- chain 1 A9I — lower, -5.77 log2 (difference from the parental peptide)
- chain 1 A9S — higher, -1.23 log2 (difference from the parental peptide)
- chain 1 A9M — higher, -0.268 log2 (difference from the parental peptide)
- chain 1 A9E — higher, 1.61 log2 (difference from the parental peptide)
- chain 1 D3G — lower, -5.23 log2 (difference from the parental peptide)
- chain 1 D3E — higher, 0.606 log2 (difference from the parental peptide)
- chain 1 D3P — lower, -5.29 log2 (difference from the parental peptide)
- chain 1 D3I — lower, -5.63 log2 (difference from the parental peptide)
- chain 1 D3N — higher, -4.32 log2 (difference from the parental peptide)
- chain 1 D3F — higher, -4.35 log2 (difference from the parental peptide)
- chain 1 D3A — lower, -5.8 log2 (difference from the parental peptide)
- chain 1 D3S — higher, -3.94 log2 (difference from the parental peptide)
- chain 1 D3Y — higher, -2.28 log2 (difference from the parental peptide)
- chain 1 Y5F — higher, -0.242 log2 (difference from the parental peptide)
- chain 1 Y5S — higher, -3.07 log2 (difference from the parental peptide)
- chain 1 Y5Q — higher, -3.13 log2 (difference from the parental peptide)
- chain 1 Y5L — higher, -1.23 log2 (difference from the parental peptide)
- chain 1 Y5E — higher, -0.259 log2 (difference from the parental peptide)
- chain 1 Y5N — higher, -2.57 log2 (difference from the parental peptide)
- chain 1 Y5V — higher, -2.43 log2 (difference from the parental peptide)
- chain 1 T16V — higher, -0.466 log2 (difference from the parental peptide)
- chain 1 T16I — higher, -0.117 log2 (difference from the parental peptide)
- chain 1 T16P — higher, -0.922 log2 (difference from the parental peptide)
- chain 1 T16L — higher, -0.207 log2 (difference from the parental peptide)
- chain 1 T16Q — higher, -1.21 log2 (difference from the parental peptide)
- chain 1 T16E — higher, 1.77 log2 (difference from the parental peptide)
- chain 1 T16K — lower, -6.05 log2 (difference from the parental peptide)
- chain 1 T16H — higher, 0.0142 log2 (difference from the parental peptide)
- chain 1 T16W — higher, -0.0649 log2 (difference from the parental peptide)
- chain 1 T16N — higher, -0.837 log2 (difference from the parental peptide)
- chain 1 T16M — higher, 0.915 log2 (difference from the parental peptide)
- chain 1 E1N — higher, -1.5 log2 (difference from the parental peptide)
- chain 1 E1H — higher, -3.17 log2 (difference from the parental peptide)
- chain 1 E1F — higher, -1.39 log2 (difference from the parental peptide)
- chain 1 E1T — higher, -1.65 log2 (difference from the parental peptide)
- chain 1 E1W — higher, -0.426 log2 (difference from the parental peptide)
- chain 1 E1I — higher, -1.63 log2 (difference from the parental peptide)
- chain 1 E1Q — higher, -0.204 log2 (difference from the parental peptide)
- chain 1 E1G — higher, -1.69 log2 (difference from the parental peptide)
- chain 1 E1R — lower, -5.75 log2 (difference from the parental peptide)
- chain 1 E1Y — higher, 0.38 log2 (difference from the parental peptide)
- chain 1 E1M — higher, -0.674 log2 (difference from the parental peptide)
- chain 1 E1L — higher, -1.96 log2 (difference from the parental peptide)
- chain 1 E1V — higher, -2.3 log2 (difference from the parental peptide)
